The record followed here is patent US5789163, “Enzyme linked oligonucleotide assays (ELONAS)” (NeXstar Pharmaceuticals, Inc.).

Series [1] addresses VEGF (vascular endothelial growth factor) (Homo sapiens, UniProt P15692-4 P15692-4:27-191). As to the kind of experiment: ELONA; 95% CI 0.19-0.33 nM, N=6; VEGF titration in sandwich with capture antibody, ligand 400 nM as detector, room temperature; 0.236 nM in Superblock/TBS-Tween variant. The settings on record: tags: R&D Systems recombinant human VEGF; chain copies: 2; label: 3'-biotin.

The target of series [2] is hTSH (human thyroid stimulating hormone) (Homo sapiens, UniProt P01215;P01222 P01215:25-116,P01222:21-132). As to the kind of experiment: ELONA; RNA as capture molecule in TEM buffer; signals analogous to commercial ELISA. The following applies: tags: Becton Dickinson, 9 IU/mg, Mr 27,700; label: 5'-biotin (GDP-beta-S, iodoacetyl-LC-biotin). On the technique in general: In an ELISA, binding on a coated surface is turned into a signal by an enzyme label.

For series [3], the target named is hCG (human chorionic gonadotropin) (Homo sapiens, UniProt P01215;P0DN86 P01215:25-116,P0DN86:21-165). As to the kind of experiment: ELONA; RNA as capture molecule in TEM buffer; detection down to 200 mIU (340 pM). The following applies: tags: Vitro Diagnostics, 14,000 IU/mg, Mr 42,000; label: 5'-biotin (GDP-beta-S, iodoacetyl-LC-biotin).
Chain of hCG (human chorionic gonadotropin) (P01215 25-116, chain 1 of 2, other chains not shown): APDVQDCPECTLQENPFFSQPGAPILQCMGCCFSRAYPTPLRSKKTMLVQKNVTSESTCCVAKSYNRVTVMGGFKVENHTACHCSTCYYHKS

Chain of VEGF (vascular endothelial growth factor) (P15692 other isoform, or with tags, fused parts or gaps): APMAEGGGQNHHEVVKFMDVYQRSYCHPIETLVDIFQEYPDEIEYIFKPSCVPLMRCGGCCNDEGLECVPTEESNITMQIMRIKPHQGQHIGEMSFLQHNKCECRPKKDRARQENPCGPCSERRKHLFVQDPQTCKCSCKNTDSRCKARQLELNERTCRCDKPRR
Chain of hTSH (human thyroid stimulating hormone) (P01215 25-116, chain 1 of 2): as the sequence (P01215 25-116, chain 1 of 2, other chains not shown) above
Chain of hTSH (human thyroid stimulating hormone) (P01222 21-132, chain 2 of 2): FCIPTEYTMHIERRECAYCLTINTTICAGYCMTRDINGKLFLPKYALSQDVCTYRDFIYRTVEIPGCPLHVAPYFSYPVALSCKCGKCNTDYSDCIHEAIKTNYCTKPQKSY

Turning to ACCCUGAUGGUAGACGCCGGG (ssRNA, 2'-NH2 pyrimidines) [VEGF-NeXamer], the EC50 (usually the midpoint of the concentration-response curve) in series [1] was 0.25 nM.

B1: T-15 (ssRNA)
RNA: GGGAGGACGAUGCGGAUGUUGGCAGCAGGGUCCGACGGCGUAACCUUGCCAGCUGCAGACGACUCGCCCGA
modifications: 2'-NH2 on all C and U
With B1, the binding result in series [2] is listed as “binds”.

B2: H-42 (ssRNA)
RNA: GGGAGGACGAUGCGGACAAGGGCCUGAGUGUGGAGGGCACGUGGAGGGGACUGGCCAGACGACUCGCCCGA
modifications: 2'-NH2 on all C and U
For B2, the binding result in series [3] is recorded as “binds”.
